Experimental data reported in publication PMC2628355, “The inhibition of assembly of HIV-1 virus-like particles by 3-O-(3',3'-dimethylsuccinyl) betulinic acid (DSB) is counteracted by Vif and requires its Zinc-binding domain” (Virology Journal, 2008).

Key:
[1] = target: VifsubCΔ170, triple mutant of HIV-1 Vif (subA+subB and deletion of the 23 C-terminal residues) (HIV-1); experiment: SDS-PAGE and immunoblotting (dimer band); whole cell lysates or VLP of baculovirus-infected Sf9 cells on SDS-denaturing 12% polyacrylamide gels, blotted with anti-His or anti-Vif antibody; a band at twice the monomer's mass
[2] = target: the molecule itself; experiment: as above

| Molecule | stoichiometry N [1] | stoichiometry N [2] |
| --- | --- | --- |
| VifsubCΔ170, triple mutant of HIV-1 Vif (subA+subB and deletion of the 23 C-terminal residues) (domain or fragment) | 2 |  |
| oligohistidine-tagged HIV-1 Vpr protein (natural protein, UniProt P69726 1-96, looked up, HIV-1 Vpr; also called His-tagged Vpr; source: Sf9 cells infected with recombinant baculovirus AcMNPV-Vpr (obtained from Eric Cohen); in cells and in extracellular VLP) MEQAPEDQGPQREPHNEWTLELLEELKNEAVRHFPRIWLHGLGQHIYETYGDTWAGVEAIIRILQQLLFIHFRIGCRHSRIGVTRQRRARNGASRS |  | 2 |
